Measured values taken from a protein production outcome set (Wang et al. 2014).

Assay: label from the status in PepcDB records

| Sequence | protein production |
| --- | --- |
| MDERNVSKPAMRGHKLVLNNRTASLVTGVKDVLSFDLNEVLLETEQGMLMVKGTDLHVNRLSLEKGEVDLSGNIDSIAYSDVHAEQKQGENLFARLFR | failed |
| MLIITYISACILFLVSFSHVYWAFGGNWGTNSVIPTKAGEKAFTPRAGMTLVIALLLSMAAIILLQQANIVHFAVPNVIIQVGSWICMIVFSIRVIGEFNYFGIFKRQKDTHFARMDTGLYIPLCAFLSLSFLLAIIL | failed |
| MSDAQKFQLGTIGALSLSVVSSVSIVICNKALISTLGFTFATTLTSWHLLVTFCSLHVALWMKFFEHKPFDPRAVLGFGVLNVNFSTFLVIGKTSPVTYQVLGHLKTCLVLAFGYLLLKDAFSWRNILGILVAVIGMVLYSYYCTLETQQKATETSTQLPQMDENEKDPLVSAENGSGLISDNGVQKQDPVWNSNKDFQA | failed |
| MPLPPDITFDSLALIKMHSQNMKRILEVTLAKFTVNLSIVTVYRYLTARAYLKKNIEAEFEILKDIYNIVPLLDDIAIKAAQIEANLIKKEITLDMEDIITATTAIYTNSLLVTDDPKRYEPIRRFGLDTMPLDKFIKEVELMVEKELI | not failed |
| MRIRFSRCASPRGKSSTGVIVPVCSAIYSIRRFWRWNKMKISVVIPTFNRCHLLAEAINSALDQASSELEVEAVIVDDESDDGTAAWLETAFAGEHRVRVLVNGRGKRPAGARNTGILAARHPKVGVIFSRARYEQDETEVPYMDPNFECKLCYASIATEDKDAVVFDRSYFGHLLKYSCYFNLSAVVMTADAARQLMSESLHIAEDFKFWVRLSHEQIFACLKVPQIRYRSHSANIPFKADKDPAGNTPSMLHTYRLMLGYPGLARSNREQLRKHMAKEYFDWAYRCSRKGRLAEALRLRLALFDLLWKNVVACVKLPWIGLRYRADRVGSTEQ | failed |
| MTDYASLLMSLTSGSALDSGCMEQLIQEGLYVTPALFSVDRAALWVLDKDEQAYLCEADFFDGMIDHRSSQRLTKKEDAELFSFLESTSEIIINNYFTYESFGLNTSRILSRFQLCSLLLIPLQIKGENRGFIFLGDSQKNIEWSPDVLFASRILVQLFERALLALDNSVAETKLQHQYQLMSEIEKLAK | failed |
| MLNKVLTHLDENIEKSLERLFSLLRFQSISTDFAYKDECRKAADWLVEDLKSIGFKASRRDTSGHPMVVGHHPGPSDDCLHVLFYGHYDVQPVDPLNLWEDDPFTPSLKEREGEKVICARGASDDKGQLMTFIEACRAFKKETGQLPVRVTVLFEGEEESGSSSLVPFLKANKDELKADCALVCDTSMWDADTPSVSVALRGILGEEIIITAANRDLHSGYFGGAAANPIRILTKVLAGLHDENNRVTLPGFYDGVEETPPHILQSWNALNCTAENFLGPIGLSLPAGEKGRSVLELVWARPTAEINGISGGYEGEGIKTVIASQASAKVSFRLVHKQDPEKIRQAFRDYVCSLIPADCSVVFKEHGASPAIQLPYDSPFIKATKDALSQEWNNPALLTVMGGSIPIVADFQSILDMETLLVGFALADDRIHSPNEKYNLKSFHKGQRSWARILATLAKTGG | not failed |
| LSIPEDYQARLQPNRVEGSYPLVRMEFTGATVDAPLMSQISRKYNIDVSILSSDLDYAGGVKFGMMVAELFGNEQDDSAAIEYLREHNVKVEVLGYVL | not failed |
| MPSLNQIFFGPPGTGKTYATVEATLQILDQPFLAKNAGSRSALKARFDELLAAGDVRFVTFHQSFSYEDFVEGLRATTDEQGQIRYEVVSGVFRSLCESVATELSGKYRAFKVGDRYGTGYKVTRATPDVVEIEKPQGKHLPIGMSLLNTLASYVDAGTFTIEELGNGRWDKKVPGSVLDPFLVNGYKNFLPSMVEHMLGKNEEGLFEPAPVQHSDAKVLIIDEINRGNVSRIFGELITLIEPSKRAGADEALEVTLPYSKERFSIPGNIHLIGTMNTADRSLAALDIALRRRFTFIEVPPNPELLDEVEVDGIAIDELLSLMNQRIAALLDRDHCLGHAYFMPLKDEPTLERLEGIFREQILPLLQEYFFEDWQRIQWVLNDQRKAPENSFLIQLSQDLIALFGDTVTVGQSNERWELNLPAFQKIESYLGVIDHNLKVGAPLEAKNVRTDGIDIRQSADGCIDVYRGGQHIKPTKPLLRELASKHGISSTSASGSELNTRSLGRKIIKFLSEQQG | failed |
| MIEEYLLRALLASLMVSTLLGLLSPLINVKGVAFLTHATFHALLFGAVLGMILGLIMGDLSLIFWISLLIAIIVVIGIAEMEIRGYSSDTAVGTMAGIIAGLTVLGFGILYKVMASRPYFALSESIVSYLTGEIFLITFDDLTLLVIGGFLVFTIMVIFYRDFLYLSFDPEGLESHGGNVRLYLMLLYFLVGAVGGLIVKTVGLITLQVLAVLPGAIALTISRGIREFVGISLGLTLAIQVSSTFLGYYFNIPPSGLATIFLGTIYGVLALRRKII | failed |
| MTQSPDITAKSWAMVATLGFVWGGTFLINELALEGITPFWLAAGRVCFGALLSTLVWRAMGGRLFSAPLSGSERLSLVIIALLSSAVPFSLIAWGQQYVTAGFTGVSMASIALMVLPLAHFFVPGERMTWRRALGFAIGFAGVALLMGAQAFESSGAALELPGRLACLAATACYAVASILMRRLPAVDPMGLSTVLLLIGVVAVLPMAWIAEGPPPSTDLRTLGLIVFLGMVPTAAANLLRVTLIRSAGPVFMSLTNYQVPIWSVLLGAALLGEPLPPVLLWSLLLILGGVGLSQYGALRRLFTRQ | failed |
| MEYGAICTPFIFVVYAKSKYLCVLISNEMGKNKLEKFADMASYPHVFEYPYSAVDNVPFDMKGKWHQEFFGNDHPIVLELGCGRGEYTVGLGRMFPDKNFIAVDIKGSRMWTGATESLQAGMKNVAFLRTNIEIIERFFAAGEVSEIWLTFSDPQMKKATKRLTSTYFMERYRKFLKPDGIIHLKTDSNFMFTYTKYMIEANQLPVEFITEDLYHSDLVDDILSIKTYYEQQWLDRGLNIKYIKFRLPQEGVLQEPDVEIELDPYRSYNRSKRSGLQTSK | failed |
| MTRPLRWWKRACPGAALRRDVNAFPPPSLAKLSAVFTIRRQPELDRRPQGASAGGALQALIAALPFALRPSRLSRQAKRPWTRACRRRLPATVGAGSLAAMDSAQPNTAAARYKSFAAFYPFYMTEHANPVSRRLHVVGTSLVIVCLVLGVFRDWRFFIAAPVIGYGFAWIGHFVFEKNRPATFKYPVYSLMGDFRLWFETVTGRRKF | failed |
| MRIPHHLSRSPTGRWSFVQRVPVDLQTVMGCRLIKRTLQTKDLAQAHVRAVVLGAGYARLFAQLTDQRVDKLSKTDADLLIARLTSAENLQDLTLNRTRQPDGTVTEQWQIDSPKDLKLYRQLMELEAMAGAALQARAHPVAVPTMFGSTHAGPSRQSSAPAIETMTLGKARDAFLATLKGSTLPKTYTIKKTAIEALVSFLGPTMKVHAITRSDLARWYQDMREKGASTPTLTNKQSYIGGRGGFFEWAMASGHYPKGDNPASGHVSYSQREKRARKKLGFKAYDRAQIQALFAPEALAKLSESARWASFLGLYTGARASEVGQLLVKDVFEEDGIPCIRISDEGEHQKVKTEVSLRTVPLHPELLKMGFLEWVGGKRKVGETRLFPAAKATAVNGQGNWITKAFSRHLAEVGKNWEPAKRGFHSLRKTLIQELQGAGVVSELRAQIVGHELDDEHHSTYGRDFTVVEKLRGLGPHSPGISRLSFFQ | failed |
| MAQPDREARPQFSHPTRQILTMLIVIGLSGFGVFVAMPRVLPVFQANPYLNGFILLVFIIGVLACFWQVVQLIGSVRWIEDFAAGQEREDTTPPSMLAPLASLLRSRAARMQISSSSTRSILDSVAERIEEEREITRYITNVLIYLGLLGTFFGLATTIPAVVDTIRSLNPQEGEEGLAVFNRLMTGLEAQLGGMGTAFGSSLLGLAGSLIVGLLELFTGHGQNRFYRELEEWLSTITRVGFSSGEEGHSESGAIAGVIDTMVEQMDALHAMFAASEEGRAEISGKLGALVETIAEMNQRQAETEDVTAALDRVAAGQETLIDFLREQGAHDGIDAESRMRLRSIDVQMLRILEEISAGRQESMAELRKDIELLAKALSVPRRPLRGVTRDEG | failed |
| MGIRVKRRQHQHLLESLVHSTAKQQGDFTKTAELATELLCQNLAVSLVSIWIFSADQGTQSLVAQFGSMALQDTYRPSLLHTVPRYLNELKNYRHIDAGNTLIDPRLTELVDSYFIPRQILSSLDVGIRINGHLEGVLCIERAQVTHHWHDSEIHLACQMADQLALTLATKHAYLEHHHHHH | failed |
| MSTSFTMIGGEGPNSYREHSKYQGALVIAAKEKINEAISTKLDIDFTSNLVNIADFGCSSGPNTFTAVQTLIDAVENKYKKESNIEGIEFQVFFNDSSNNDFNTLFKTLPPARLYFASGVPGSFFGRVLPKNSLHVGVSSYSLHFVSKVPKEIKDRDSLVWNKDIHCSGSSKEVVKLYLGQYKIDVGSFLTARAQELVSGGLLLLLGSCRPTGVQMFETVEGMMIDFIGSSLNEIANQGLIDQQKLDTFKLPIYAPNVDELKQIIEDNKCFTIEAFEKISHAKGEYPLDPEYLTSAFKVTVGGSVASLFGQDGMEKTYELVKEKTQEMLPQIAKAKPGMQYLIVLRRN | failed |
| MTQQTDLQSKTNIDPLAMNDSFLAAADALAVDPMFGIPANVREVIARRGNATRLVILGTKGFGAHLMNVRHERPCEVIAAVDDFRYHSGELYYGLPIISTDRFTELATHDRDLVALNTCRYDGPKRFFDQICRTHGIPHLNFEQAVRAFGLQGNVDYRVDDWGADIVRNIPAFQTLAQRLADDYSVQTLYAVLNFHLTCEPEYYHEVERPYSTLYFRSGLLRFSDSEKMVDCGASIGESLAGLIGVTKGKFERVWMIEPDRINLQTLQNVLRRYTDTNFASRITVHGCGAGENTIRVPFNHEGGHGGFVKPADADHEPADLIDVRPIDDIIDDAPTFIKMDIEGSELSALKGARRAISEHKPKLAISAYHRSTDLLDLTNYILSIRPDYQIGLRHHTPDRWDTCLYFY | not failed |
| MKQNQYLFLLFTLIVLTGCGGTQKKLTEYVNPFLGTATLWEPEDLGYTRKIKSRTWGAETYPGATLPNAMVQLSPVTQFRSGAGYQYEDTVIYGFSHTAKGHWNLLHVPMLPVVGTIAPGNYCSGFSHEKESAHPGYYQVYLERYKVNAELTSTLRCAYHKYTFAKGDDKSLLVDIRRSNNDVRDWKIEKVDDNTFTGYQDGDGKIYFYAKTNYKIGQVEMVKDDKHEVAVLRFIDSKGVEPLEVKAGFSFVSIENAQMNLKAEMLNKSFAQVAEEADAAWEALLSKIQVAGGTEREKRLFYSTFFHAFKWPALRSDVNHEYTDVRGEVVNNGFHYYTDPSFWDDYRNKLVLIGMISPDVTTDIIRSIIDKGEKRDGYMPTFFHGDHASTFISGSWLRGLHDFDLERAYKLILKNATVPGKGGRRYLDEYMERGWIAEKDTVNVPTWDEYKGAVTKTQEYAYDDYAVALVAKELGDEANYKLMMERSNNYKTLFDPSTGFWRGKIDDGSWIQDFDPYYPYYQYMYREANAWNALFFAPHDPEGMIKLYPSKEAVEAKLDSLFSEPWRGYEAHNLTGFIGNYCHGNQPGHSIPYTYYFIDKQEKAQCILDSLMNHYYDMGADKLAYAGMDDAGEMSSWYVLNAIGLYTYSPADPEYIVTVPLFDKVTFNLNGRPFTIVKKGSGKKIIDITYDGKKIDGYFITHDQLREGKELVITTE | failed |
| LLGELNEWLQSCRSLEELFAMVSRFMEHILPDAEGSLYVYSNSRDVLDGSAGWNGGAFKDHIHPEACWGLRRGRSYEYGASEVDFVCDHAEPHDGRPYFCFPVLAHGETVGLMHLRAQPGAEAEFSASKRLAQMCAEQISMAIANVRMRDQLHDQ | failed |
| MSLDSISLIKTPIEAELEDFKALFDTPLSDSNALLDSVITHIRKRNGKMMRPILVLLVARLYGAVTPATLHAAVSLELLHTASLVHDDVVDESTERRGQLSVNAIFNNKVSVLAGDYLLATSLVHAEQTNNYEIIRLVSSLGQKLAEGELLQLSNVSNHSFSEEVYFDVIRKKTAALFAACAEAAALSVQVGEEEVAFARLLGEYIGICFQIKDDIFDYFDSKKIGKPTGNDMLEGKLTLPALYALNTTKDAWAEQIAFKVKEGTATPDEIVRLIEFTKDNGGIEYACRTIEQYKKKAFDLLAALPDSNICLALRTYLDYVVAREKEGHHHHHH | not failed |
